Experimental data: US20210095041A1 (SURFACE ONCOLOGY, published 2021)

What was measured:
recombinant mouse CD39 = molecular target: T1, recombinant mouse CD39 (mouse, UniProt P55772 38-478, limits assumed); experiment: BLI (Octet), clone 22 amine-coupled to AR2G biosensor, recombinant mouse CD39 as analyte
T1 sequence (looked up): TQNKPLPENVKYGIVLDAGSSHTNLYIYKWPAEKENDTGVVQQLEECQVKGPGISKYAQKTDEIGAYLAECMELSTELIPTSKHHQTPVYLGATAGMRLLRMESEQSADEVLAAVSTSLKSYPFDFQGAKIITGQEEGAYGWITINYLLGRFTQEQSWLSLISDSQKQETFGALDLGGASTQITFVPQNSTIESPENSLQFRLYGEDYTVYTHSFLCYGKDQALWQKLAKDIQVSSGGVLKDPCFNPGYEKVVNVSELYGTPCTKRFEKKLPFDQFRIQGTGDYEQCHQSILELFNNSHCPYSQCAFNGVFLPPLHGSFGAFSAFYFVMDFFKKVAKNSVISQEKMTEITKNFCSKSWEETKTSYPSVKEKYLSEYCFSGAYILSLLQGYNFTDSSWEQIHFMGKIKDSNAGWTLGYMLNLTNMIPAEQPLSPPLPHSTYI
Method: (§1) In the first configuration, an Anti-Human Immunoglobulin G (IgG) Fragment Crystallizable (Fc) Capture (AHC) biosensor was used first to capture 1 μg/mL of clone 22 as the ligand onto 8 biosensors and subsequently to measure association (600 s) and dissociation (900 s) of 0 to 5 μg/mL of recombinant CD39 from either human, rat, or cynomolgus monkey as the analyte. A second configuration was required for recombinant mouse CD39 binding analysis, as the positive control antibody was a rat IgG and would not bind to the AHC biosensor. Recombinant mouse CD39 binding to clone 22 was analyzed with this second configuration to achieve a direct comparison with the positive control antibody. […] Subsequently, association (600 s) and dissociation (1200 s) of recombinant mouse CD39 (analyte) was measured at a concentration range of 0 to 5.0 μg/mL for both antibodies. […] Under both configurations, association constants (kₐ) and dissociation constants (kd) were determined and KD was calculated for each antibody where binding of the analyte was observed (clone 22 with recombinant CD39 from both human and cynomolgus monkey and Duha59 positive control antibody with recombinant mouse CD39). Kinetic binding parameters were not determined for interactions where binding was not observed (clone 22 with recombinant CD39 from both mouse and rat).

recombinant rat CD39 = molecular target: T2, recombinant rat CD39 (rat, UniProt P97687 38-478, limits assumed); experiment: BLI (Octet), clone 22 captured on AHC biosensor, recombinant rat CD39 as analyte
T2 sequence (looked up): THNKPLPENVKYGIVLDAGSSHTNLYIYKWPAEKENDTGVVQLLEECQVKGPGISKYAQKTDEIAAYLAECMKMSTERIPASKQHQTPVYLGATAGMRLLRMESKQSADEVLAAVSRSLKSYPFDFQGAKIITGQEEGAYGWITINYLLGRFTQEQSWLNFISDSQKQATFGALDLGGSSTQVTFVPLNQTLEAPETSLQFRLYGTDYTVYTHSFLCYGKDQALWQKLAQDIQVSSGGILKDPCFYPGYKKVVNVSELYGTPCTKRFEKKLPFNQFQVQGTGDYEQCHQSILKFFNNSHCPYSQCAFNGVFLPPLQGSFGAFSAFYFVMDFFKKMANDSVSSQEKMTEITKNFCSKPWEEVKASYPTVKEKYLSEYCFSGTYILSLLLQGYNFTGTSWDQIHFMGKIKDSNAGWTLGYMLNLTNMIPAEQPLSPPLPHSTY
Method: as §1

recombinant human CD39 = molecular target: T3, recombinant human CD39 (human, UniProt P49961 38-478); experiment: BLI (Octet), clone 22 captured on AHC biosensor, recombinant human CD39 as analyte, 1:1 model
T3 construct: The clone 1-20 assays used carrier-free human CD39-His lacking transmembrane domains (R&D Systems 4397-EN-010); also called rhCD39
T3 sequence (looked up): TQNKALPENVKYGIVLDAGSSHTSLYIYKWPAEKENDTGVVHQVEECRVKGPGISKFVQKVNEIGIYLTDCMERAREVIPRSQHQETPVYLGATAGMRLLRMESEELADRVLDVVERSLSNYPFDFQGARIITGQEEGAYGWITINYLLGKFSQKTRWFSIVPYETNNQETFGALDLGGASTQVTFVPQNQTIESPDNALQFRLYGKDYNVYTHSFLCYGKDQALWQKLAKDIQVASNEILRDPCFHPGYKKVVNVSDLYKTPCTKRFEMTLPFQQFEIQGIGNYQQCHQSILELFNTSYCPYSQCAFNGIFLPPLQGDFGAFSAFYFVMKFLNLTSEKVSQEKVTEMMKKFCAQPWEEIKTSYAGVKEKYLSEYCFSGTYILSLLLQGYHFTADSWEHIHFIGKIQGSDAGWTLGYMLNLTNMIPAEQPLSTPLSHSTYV
Method: as §1

[1] = molecular target: T4, recombinant cynomolgus monkey CD39 (cynomolgus monkey, UniProt A0A7N9DGH8 38-478); experiment: BLI (Octet), clone 22 captured on AHC biosensor, recombinant cynomolgus monkey CD39 as analyte, 1:1 model
T4 sequence: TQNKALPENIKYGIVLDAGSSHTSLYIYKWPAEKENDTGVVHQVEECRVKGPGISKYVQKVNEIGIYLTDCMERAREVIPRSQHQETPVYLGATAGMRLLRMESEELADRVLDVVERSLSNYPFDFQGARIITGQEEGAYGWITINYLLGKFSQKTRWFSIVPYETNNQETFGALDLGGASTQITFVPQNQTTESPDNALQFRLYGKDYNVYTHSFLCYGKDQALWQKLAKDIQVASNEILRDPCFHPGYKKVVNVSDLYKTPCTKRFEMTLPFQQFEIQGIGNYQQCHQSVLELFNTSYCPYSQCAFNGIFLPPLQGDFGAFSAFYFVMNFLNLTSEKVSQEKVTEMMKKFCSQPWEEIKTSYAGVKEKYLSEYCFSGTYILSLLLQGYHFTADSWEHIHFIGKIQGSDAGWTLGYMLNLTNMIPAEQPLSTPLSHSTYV
Method: as §1

Kd (recombinant human CD39): 1.11 nM
Kd [1]: 0.406 nM
B1: clone 22 (antibody, human IgG4 S228P, kappa, V domains shown)
VH: QVQLVQSGAEVKKPGSSVKVSCKASGGTFSSEGISWVRQAPGQGLEWMGSILPIFGTANYAQKFQGRVTITADESTSTAYMELSSLRSEDTAVYYCAREAGYYRYRYFDLWGRGTLVTVSS
VL: EIVMTQSPATLSVSPGERATLSCRASQSVSSNLAWYQQKPGQAPRLLIYGASTRATGIPARFSGSGSGTEFTLTISSLQSEDFAVYYCQQHALWPLTFGGGTKVEIKR
notes: Human IgG4 with the S228P mutation and a human kappa light chain; also called anti-CD39 antibody clone 22; antibody clone number 22
binding result (recombinant mouse CD39): no binding (tested: 0 to 5.0 µg/mL recombinant mouse CD39)
binding result (recombinant rat CD39): no binding (tested: 0 to 5 µg/mL recombinant rat CD39)
